# Data as given in patent publication US10012655B2, “Method for quantitating total HMGB1 protein in biological samples” (INSTITUT PASTEUR, priority 2008, dated 2018).
# Test system: R5-HIV-1Ba-L
# Assay: HIV-1 replication in infected iDCs, p24 ELISA in culture supernatant
# Assay type: cell-based
# Details: 1 μg/ml, 3 days
# Protocol: FIGS. 6 (a), (b) and (c). Exogenous rh-HMGB1 triggers HIV-1 and HIV-2 replication in iDC. (a) HIV-1-infected iDC were cultured alone or in the presence of aNK cells for 3 days. Rh-HMGB1 (1 μg/ml) was added in some cultures. HIV replication was measured by p24 quantification in culture supernatant (b) HIV1-infected iDC were cultured alone or in the presence of aNK cells for 3 days. Blocking anti-HMGB1 antibodies (10 μg/ml) or glycyrrhizin (10 μg/ml) were added at culture initiation. HIV replication was measured by p24 quantification in culture supernatant. The mean±sd of three independent experiments is shown. Statistical comparisons were made with the non parametric Mann-Whitney test. * p<0.05; (c) HIV-2-infected iDC were cultured alone or in the presence of aNK cells for 3 days. Rh-HMGB1 (1 μg/ml) was added in some cultures. HIV replication was measured by p24 quantification in culture supernatant.
# Virus stock preparation was prepared by amplification of R5-HIV-1Ba-L on MDM from healthy donors. Viral stock was then clarified by centrifugation prior to determination of HIV1 p24 concentration. iDCs were plated in 96-well culture plates at 200,000 cells/well and incubated for 3 hours at 37° C. in a 5% CO2 atmosphere with R5-HIV-1BAL at various concentrations (0.001 to 10 ng p24/ml). Cells were harvested, washed four times with media containing 10% FCS and, when indicated, rNK or aNK cells were added at a NK:DC ratio of 1:5, unless otherwise indicated. NK-DC cocultures lasted 24 h before analysis of the maturation stage of DCs and/or quantification of viral production. In some experiments (FIG. 6), HIV-1 infected iDCs were incubated alone or with aNK cells for 3 days, in the presence of rh-HMGB1 (1 μg/ml) (R&DSystems), and in some cultures in the presence of rabbit antiHMGB1 Abs (10 μg/ml) (Abcam, Cambridge, UK) or Glycyrrhizin (10 μg/ml).
# The concentration of HIV-1 in the supernatant of infected cell cultures was determined by measuring the amount of p24 protein by ELISA (Ingen, Belgium). DNA from cells was extracted using the GIAamp DNA Blood Mini Kit (Qiagen, Basel, Switzerland) and quantified HIV-1 proviral load by RT-PCR as described previously54. The frequency of HIV-1-infected cells was determined by flow cytometry to detect intracellular p24 molecule. Cells were surface stained with antibodies specific for CD40 (BD Biosciences, San Jose, Calif.) to target DC and intracellular stained with p24-specific antibodies (Coulter). Stained cells were fixed in 1% PFA, immediately acquired on a FACScalibur (Becton Dickinson) and analyzed with FlowJo software. In some experiments infected DCs were imaged, after immunofluorescence, by laser scanning confocal microscopy.
molecule,measurement,setting,value
"rh-HMGB1: recombinant human HMGB1 protein (R&D Systems) (protein, UniProt P09429 1-215, looked up) High mobility group protein B1: MGKGDPKKPRGKMSSYAFFVQTCREEHKKKHPDASVNFSEFSKKCSERWKTMSAKEKGKFEDMAKADKARYEREMKTYIPPKGETKKKFKDPNAPKRPPSAFFLFCSEYRPKIKGEHPGLSIGDVAKKLGEMWNNTAADDKQPYEKKAAKLKEKYEKDIAAYRAKGKPDAAKKGVVKAEKSKKKKEEEEDEEDEEDEEEEEDEEDEDEEEDDDDE",p24 production in culture supernatants,HIV-1-infected iDC cocultured with aNK cells,significant stimulatory effect on p24 production
same,production of p24 in culture supernatants,HIV-1-infected iDC cultured alone,enhancing dramatically the production of p24
